From US20210162011A1 come the findings set out here.

This test addresses leptin receptor (LepRb), expressed on transfected HEK293 cells. Kind of test: cell-based or functional assay.

“recombinant mouse Batotin protein (76 aa) with a six-amino-acid His tag at its C-terminus (from UniProt Q8K1L6 1-76) (ligand)”: the cells with a p-STAT3 positive nucleus after leptin, immunofluorescence was under 10%. “recombinant human Batotin protein with a six-amino-acid His tag at its C-terminus (from UniProt Q96GX8 1-76) (ligand)”: the cells with a p-STAT3 positive nucleus after leptin, immunofluorescence was under 10%.

Regarding leptin (ligand), the cells with a p-STAT3 positive nucleus, immunofluorescence was over 80%.
